# Experimental data published in the supplement of paper PMC10567573.
# B1: FCHO1 (parent)
# chain: FSDPSQSDPETKDFWLNMAALTEA
# B2: CASP6 (parent)
# chain: TCADRDNLTRRFSDLGFEVKCFND
# Variants of: B1
# Assay: protein stability index of a GFP-peptide fusion (GPS, HEK-293T) (PSI 1-6); higher = more stable
# Settings: c terminus: a fixed tail appended
# 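Further: lentivirally expressed fusions sorted by FACS into six bins by GFP to DsRed ratio, PSI derived from sequencing read proportions per bin multiplied by bin number.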
row,Variant,protein stability index
1,F1G,4.86
2,F1D,5.36
3,F1C,4.02
4,F1W,4.1
5,F1N,4.52
6,F1K,4.42
7,F1Y,3.26
8,F1L,4.25
9,F1R,3.73
10,F1S,4.74
11,F1P,4.8
12,F1T,4.87
13,F1M,4.18
14,F1H,4.7
15,F1A,4.73
16,F1I,4.11
17,F1Q,4.72
18,F1E,4.97
19,F1V,4.86
20,D13V,1.65
21,D13A,2.09
22,D13Q,2.08
23,D13L,1.82
24,D13I,1.75
25,D13R,1.97

row,Variant,protein stability index
1,D13M,1.43
2,D13T,2.37
3,D13C,1.77
4,D13G,2.96
5,D13K,2.33
6,D13Y,2.25
7,D13P,2.37
8,D13H,2.02
9,D13F,1.88
10,D13S,1.47
11,D13N,1.27
12,D13E,3.62
13,D13W,1.65
14,Q6G,2.25
15,Q6S,2.66
16,Q6V,2.85
17,Q6I,2.4
18,Q6P,3.16
19,Q6K,2.52
20,Q6R,2.44
21,Q6E,3.35
22,Q6N,2.56
23,Q6T,2.68
24,Q6D,3.3
25,Q6M,2.66

row,Variant,protein stability index
1,Q6A,2.91
2,Q6Y,1.81
3,Q6C,2.64
4,Q6L,2.55
5,Q6W,1.75
6,Q6F,2.65
7,Q6H,2.59
8,S5F,2.27
9,S5L,2.84
10,S5Q,3.21
11,S5P,2.94
12,S5I,2.74
13,S5K,2.94
14,S5W,1.74
15,S5T,2.84
16,S5A,3.03
17,S5E,4.46
18,S5G,2.66
19,S5N,2.79
20,S5Y,2.45
21,S5V,2.54
22,S5D,3.93
23,S5C,2.6
24,S5R,2.21
25,S5M,3.35

row,Variant,protein stability index
1,S5H,2.87
2,F14A,4.17
3,F14C,4.11
4,F14P,4.58
5,F14G,4.83
6,F14Q,4.75
7,F14I,3.61
8,F14T,4.57
9,F14K,4.72
10,F14E,4.99
11,F14R,4.62
12,F14D,4.88
13,F14S,4.78
14,F14W,3.87
15,F14Y,3.98
16,F14M,4.12
17,F14L,3.69
18,F14H,4.51
19,F14N,4.76
20,F14V,4.01
21,D8Q,2.24
22,D8C,2.62
23,D8P,2.93
24,D8G,2.75
25,D8S,2.71

row,Variant,protein stability index
1,D8K,2.32
2,D8Y,2.23
3,D8F,2.37
4,D8I,2.9
5,D8N,1.95
6,D8H,2.21
7,D8L,2.63
8,D8R,2.57
9,D8E,3.1
10,D8V,3.11
11,D8W,1.86
12,D8M,3.04
13,D8A,2.62
14,D8T,2.81
15,D3E,2.73
16,D3I,1.71
17,D3A,1.45
18,D3W,2.72
19,D3L,1.74
20,D3G,1.74
21,D3C,2.23
22,D3F,2.1
23,D3V,1.45
24,D3T,1.74
25,D3P,2.4

row,Variant,protein stability index
1,D3S,2.38
2,D3H,1.69
3,D3Q,2.08
4,D3K,1.48
5,D3R,2.06
6,D3Y,1.78
7,D3M,1.96
8,D3N,2.02
9,T11K,2.49
10,T11W,1.74
11,T11S,2.98
12,T11L,2.13
13,T11E,4.2
14,T11Q,3.15
15,T11N,3.12
16,T11R,2.69
17,T11P,3.38
18,T11V,2.69
19,T11D,4.34
20,T11C,2.92
21,T11M,2.31
22,T11F,2.09
23,T11I,2.7
24,T11A,3.11
25,T11H,2.87

row,Variant,protein stability index
1,T11G,3.04
2,T11Y,2.06
3,S2I,2.8
4,S2R,3.79
5,S2T,2.11
6,S2V,1.93
7,S2P,3.02
8,S2M,3.5
9,S2K,4.22
10,S2H,1.99
11,S2A,1.7
12,S2D,4.53
13,S2L,2.65
14,S2N,1.53
15,S2F,2.89
16,S2Q,2.4
17,S2W,2.93
18,S2Y,3.28
19,S2E,4.62
20,S2G,2.32
21,S2C,1.69
22,K12W,2.52
23,K12E,3.6
24,K12Y,2.97
25,K12D,4.39

row,Variant,protein stability index
1,K12G,3.23
2,K12R,2.65
3,K12M,3.07
4,K12V,2.86
5,K12P,3.1
6,K12A,3.25
7,K12L,2.62
8,K12C,3.04
9,K12F,2.6
10,K12S,3.26
11,K12N,3.66
12,K12I,3.11
13,K12H,3.2
14,K12T,3.15
15,K12Q,3.43
16,L16A,2.87
17,L16H,2.3
18,L16D,5.04
19,L16E,4.87
20,L16F,2.41
21,L16C,2.1
22,L16I,2.32
23,L16G,2.41
24,P9V,3.54
25,P9S,2.6

row,Variant,protein stability index
1,P9D,3.7
2,P9F,2.76
3,P9E,4.01
4,P9H,2.73
5,P9K,3.05
6,P9M,3.39
7,P9W,2.4
8,P9Q,3.27
9,P9A,3.12
10,P9I,2.82
11,P9Y,2.65
12,P9C,2.68
13,P9G,2.77
14,P9N,2.63
15,P9L,2.77
16,P9R,2.8
17,P9T,3.19
18,E10M,1.94
19,E10V,2.63
20,E10A,2.5
21,E10Y,2.14
22,E10Q,2.54
23,E10C,2.06
24,E10F,1.94
25,E10L,2.33

row,Variant,protein stability index
1,E10H,1.97
2,E10S,2.2
3,E10I,2.45
4,E10P,2.66
5,E10N,1.9
6,E10D,3
7,E10K,2.04
8,E10T,2.12
9,E10G,2.03
10,E10W,1.83
11,E10R,2.29
12,W15V,4.77
13,W15M,4.48
14,W15F,4.3
15,W15K,4.85
16,W15S,4.82
17,W15C,4.62
18,W15I,4.43
19,W15Q,4.45
20,W15G,4.65
21,W15Y,4.38
22,W15R,4.68
23,W15D,5.32
24,W15H,4.73
25,W15T,4.38

row,Variant,protein stability index
1,W15P,4.66
2,W15A,4.88
3,W15E,4.68
4,W15L,4.59
5,W15N,4.79
6,S7T,2.74
7,S7P,3.92
8,S7W,2
9,S7C,2.9
10,S7I,2.38
11,S7F,2.63
12,S7V,3.29
13,S7R,2.64
14,S7D,3.73
15,S7Q,3.18
16,S7N,2.86
17,S7A,3.37
18,S7Y,2.69
19,S7H,3.39
20,S7K,2.8
21,S7L,2.65
22,S7M,3.55
23,S7E,3.69
24,S7G,2.6
25,P4A,2.81

row,Variant,protein stability index
1,P4K,2.04
2,P4C,1.99
3,P4T,2.23
4,P4W,1.85
5,P4H,2.16
6,P4F,2.16
7,P4D,3.49
8,P4R,2.02
9,P4V,2.65
10,P4L,2.45
11,P4Y,1.85
12,P4G,2.38
13,P4E,3.37
14,P4N,2.04
15,P4I,3.33
16,P4Q,2.67
17,P4M,2.21
18,P4S,2.26

# Variants of: B2
# Assay: as above
# Settings: c terminus: a fixed tail appended
row,Variant,protein stability index
1,D24P,3.24
2,D24E,2.94
3,D24R,2.67
4,D24C,2.41
5,D24S,2.57
6,D24Q,3.24
7,D24H,2.95
8,D24V,1.23
9,D24K,3.02
10,D24N,2.97
11,D24I,1.87
12,D24M,2.6
13,D24G,2.66
14,D24T,2.54
15,D24L,2.17
16,D24F,2.11
17,D24W,2.14
18,D24A,2.21
19,D24Y,2.04
20,N23E,4.66
21,N23D,3.41

row,Variant,protein stability index
1,N23R,3.89
2,N23G,3.23
3,N23I,2.49
4,N23A,3.52
5,N23H,2.71
6,N23M,2.98
7,N23L,3.8
8,N23W,1.41
9,N23Q,3.12
10,N23V,2.81
11,N23K,3.41
12,N23F,2.51
13,N23Y,2.34
14,N23P,3.61
15,N23T,3.28
16,N23C,1.8
17,N23S,3.66
18,F22Y,3.98
19,F22V,3.93
20,F22W,3.28
